Data on 1 molecule can be found in paper PMC11002074, “Lysyl oxidase-like 4 promotes the invasiveness of triple-negative breast cancer cells by orchestrating the invasive machinery formed by annexin A2 and S100A11 on the cell surface” (Frontiers in Oncology, 2024).

This assay deals with T1, GST-annexin A2 (human, UniProt P07355 1-339).
T1 construct: annexin A2 (ANXA2), human cDNA cloned into pGEX6P1; also called GST-ANXA2; source: E. coli, purified (glutathione beads)
In words: far-Western, overlay or dot blot; purified proteins (10 µg) dot-blotted on nitrocellulose in duplicate; incubated with bio-PLG (10 µg) together with S100A11 (10 µg); 1 mM Ca2+, 50 mM Tris-HCl pH 7.4; detected with streptavidin-HRP or anti-S100A11. The settings on record: both partners purified.

T1 sequence (P07355 whole entry): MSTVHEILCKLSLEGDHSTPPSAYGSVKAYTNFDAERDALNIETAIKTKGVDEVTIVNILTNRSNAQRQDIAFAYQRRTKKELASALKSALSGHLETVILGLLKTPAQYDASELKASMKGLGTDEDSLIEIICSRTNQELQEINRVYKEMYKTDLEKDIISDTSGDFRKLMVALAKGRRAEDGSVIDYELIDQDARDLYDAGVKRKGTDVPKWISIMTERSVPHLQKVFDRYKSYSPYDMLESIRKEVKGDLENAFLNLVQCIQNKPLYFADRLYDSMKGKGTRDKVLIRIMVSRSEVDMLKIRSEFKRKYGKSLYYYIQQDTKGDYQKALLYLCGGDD

B1: S100A11 (recombinant, GST cleaved) (natural protein, human, UniProt P31949 1-105, looked up)
chain: MAKISSPTETERCIESLIAVFQKYAGKDGYNYTLSKTEFLSFMNTELAAFTKNQKDPGVLDRMMKKLDTNSDGQLDFSEFLNLIGGLAMACHDSFLKAVPSQKRT
notes: S100A11, human cDNA cloned into pGEX6P1; source: E. coli, purified (glutathione beads), GST cleaved by PreScission Protease and removed
Regarding B1, the binding result was “binds”.
